Test: Measurement of micelle formation by dynamic light scattering (particle diameter)
Type: physicochemical
Details: DLS in solution at various temperatures
Procedure: The micelle formation was observed by measuring the particle diameter of glycopeptides using dynamic light scattering (DLS; HK-6600 manufactured by Otsuka Electronics Co., Ltd.).
For the solution of Compound 1, the temperature was varied between a temperature range of 15° C. to 35° C. for 15 minutes, the temperature variation was repeated, and the particle diameters were measured at 15° C. and 35° C..

## NH2-Val-Pro-Gly-Val-Gly-Val-Pro-Gly-Val-Gly-OH (H-VPGVGVPGVG-OH) [reference peptide molecule]
  particle diameter of aggregate (in words): very large particle diameter

— US20080023859A1, “Glycopeptides and Temperature-Responsive Micelles” (Toagosei Co., Ltd., priority 2003, published 2008)
